assay: soluble on expression in E. coli; label from the status in PepcDB or PDB records

| Sequence | soluble on expression in E. coli |
| --- | --- |
| MSLKIKKSKLIGFVVADITNPFSVAAFRGVEEVCDQYGYSIMVCNTDNSPEKEREMLLKLEAHSVEGLILNATGENKDVLRAFAEQQIPTILIDRKLPDLKLDTVTTDNRWITKEILQKVYSKGYTDVALFTEPISSISPRAERAAVYQEMASVQNVNGLVRLHEIDVKDKEQLKAELRSFHKEMPEQKKAILALNGLIMLKIISCMEELGLRIPQDIGIAGFDDTEWYKLIGPGITTIAQPSHDMGRTAMERVLKRIEGDKGAPQTIELEAKVIMRKSLEGHHHHHH | soluble |
| MKKIAVFADVQNLYYTVRQAYGCHFNYAALWADISKRGEIVHAFAYAIDRGDSKQQQFQQILRNLGFTVRLKPYIQRSDGSAKGEWDVGITIDIMDFAPQVDEVVLASGDGDFDMLLDRVISKHGVEAVAYGVPGLTANSLIRAASRYVPIEGALLLK | not soluble |
| MGSDKIHHHHHHMTLDAVLTQIDTDLDAAMARLMALLRVPSISTDPAFDADVARAAQILCDDLTGLGFDASVRETTGHPMVVAHGDDTGPHVLFYGHYDVQPVDPLDLWDRDPFDPIIEEQNGKKVIRARGASDDKGQLMTFIEACRAWKAVTGKLPAKVTIFLEGEEESGSPSLVPFMEAHKDELTAEVALICDTGLFAEGVPAIVTQLRGMLQEEITVTGPRIDLHSGMFGGIAMNPIRVLSGVLAGLHDANGSVTVPGFYEGVPDISDDLRASWDALGFVPEAFLGPVGLSHPAGEAGRSGLEMIWSRPTAEVNGVWGGYTGAGFKTVLPSQAHAKISFRLVAGQDPDRLHENFVDWVTAQMPPDCTVSITQIAGSRASQMDTSHPIFETTRQALSDEWPNEAAYIGCGGSIPVAGHFKTILGMDSVLAGFGKDDDAIHSPNEKYDVESFHRGIRSWARVLGGLSEV | not soluble |
| GSHMDSEIQMENLVERKHHRLARSERSGISDRDAKPTASIRDQLHTIVYRYPPTYVLSSEEQDLVWKFRFYLSSHKKALTKFLKCINWKLEDEVTQALWMLANWAPMDVEDALELLSPTFTHPQVRKYAVSRLAQAPDEDLLLYLLQLVQALKYEDPRHIVHLHGCIFPERDVVRSILDDNGSLLDQSSLSDLSATSSGLHASVIPANQRAASVLAAIKSDKSVSPGSAGGSGSGGQGSVALPNPSAPATPGSSSLPCDSNSNALMLAEGISFGSVPANLCTFLIQRACTNATLANYFYWYLSIEVEEVESVRKQDERAHDMYAMVLKMFLKVLENGNFNLRGIFYNLRKQRRFIDELVKLVKLVAKEPGNRNKKTEKFQKLLAEQDMFKVNFTNFEPIPFPLDPEIYITKIVPMRTSLFKSALMPAKLTFVTSIAHHEYAAIFKHGDDLRQDQLILQMITLMDKLLRRENLDLKLTPYKVLATSSKHGFLQYVDSCTVAEVLAREGNIHNFFRKHHPCDNGPYGISAEVMDTYIKSCAGYCVITYLLGVGDRHLDNLLLTTNGKLFHIDFGYILGRDPKPMPPPMKLSKEMVEAMGGISSEHHHEFRKQCYTAYLHLRRHANVMLNLFSLMVDATVPDIALEPDKAVKKVEENLQLGLTDEEAVQHLQSLLDVSITAVMPALVEQIHRFTQYWRK | soluble |
| MQKQLLLGVEAIAQAALDAGISGVYAYPGTPSTEITEHIQNSRMAKERNVHREWAANEKTAMESALGMSYAGKRALVCMKHVGMNVAADCFMNAAITGANGGMVIVAADDPSMHSSQNEQDSRVYGQFAMIPVMEPSNQQEAYDMTRLAFDLSERLGTPVMMRITTRLAHSRAGVVQTEPIGENELHLP | not soluble |
| MGSDKIHHHHHHMTVELKNILDLEKWEKLQESLALSTRLAIILVDYKGRPVTKHSQVQPFCQLVRHSPELSKLCEKCDARGGLEAVRTGQPFIYRCHFNIVDMAIPIIVDDQYVGAIMAGEVLLEDHQEELEQVLTMNDAFIQEFLVTHQELYQQYPVLELADLEKSATLIADLSQYIISEAIKKDYLINTYKQSLQISSRKEELEPLNMIQKDIQQTLLTAQLTPSSAYQTKNKQLQPVLDALWENKSLRLNLQELADLVHLTPTYLSRLLKEEFGIPFSQFYRQLKITWAKQLLLETDKTIAQISEDLGFVEDSYFVRIFKQETGETPLKYRKRKNRA | not soluble |
| MSLKADPRGTGSRTPGTATGGKTVPTVPPAPTADRRTTVDVTALLERGRTLATPVLRAAVDRLAPPMDTVAAYHFGWIDAQGNPADGDGGKAVRPALAVLSAEVTGAAPEVGVPGAVAVELVHNFSLLHDDLMDGDEQRRHRDTVWKVHGPAQAILVGDALFALANEVLLELGTVEAGRATRRLTKASRSLIDGQAQDISYEHRDRVSVEECLEMEGNKTGALLACASSIGAVLGGADERTADTLEKYGYHLGLAFQAVDDLLGIWGDPDATGKQTWSDLRQRKKSLPVVAALAAGGAASERLGEILTADAKASDFANFSEEEFAARAALIEEAGGREWTADEARRQHTIAIEALDAVDMPDRVRDRFTALADFVVVRKREGHHHHHH | soluble |
| MSEDRSSNGHKSWLDKITQAFAHEPRNRQELLELLRDAHDNKLLDSEALSIVEGAIQVADLQVRDIMVPRSQMMSIRSTQTPKEFLPAIIEAAHSRYPVVGESLDDVMGVLLAKDLLPLILHNDERPFDIKELLRPATFVPESKRLNVLLREFRANRNHMAIVIDEYGGVAGLVTIEDVLEQIVGDIEDEHDVEEDSYIKPLPSGDFIVKALTPVDAFNDFFGSEFSDEEFDTVGGLVMSAFGHLPKRNEVVELGEFRFRVLNADSRRVHLLRLSPLQN | soluble |
| MRITIYTRNDCVQCHATKRAMENRGFDFEMINVDRVPEAAEALRAQGFRQLPVVIAGDLSWSGFRPDMINRLHPAPHAASA | soluble |
| MRIPRIYHPISLENQTQCYLSEDAANHVARVLRMTEGEQLELFDGSNHIYPAKIIESNKKSVKVEILGRELADKESHLKIHLGQVISRGERMEFTIQKSVELGVNVITPLWSERCGVKLDAERMDKKIQQWQKIAIAACEQCGRNIVPEIRPLMKLQDWCAENDGALKLNLHPRAHYSIKTLPTIPAGGVRLLIGSEGGLSAQEIAQTEQQGFTEILLGKRVLRTETASLAAISALQICFGDLGEAAAAAALEHHHHHH | soluble |
| MHIQIDGIPIEILRKPIKNLNLRIYPPDGLVKVSVPLKYSEQLIKQQLQEKSKWIRAQCEQIRARSFYREPSLQTGATIPFKGKSYLLIVEEHYGPSQILIKNELIYCYTKPDLTPQQKQNILDRWYRKEMNLVIPRLIQQWEAIMKVKINQWGIKKMKTRWGSCNPRAQRIWLNLNLIKKPLECLEYVLVHEMVHILEASHNKRFYALMTQFMPKWQEYQRILEGTPNASTFARLEHHHHHH | not soluble |
| AAIGSCSKEYRVLLGQLQKQTDLMQDTSRLLDPYIRIQGLDVPKLREHCRERPGAFPSEETLRGLGRRGFLQTLNATLGCVLHRLADLEQRLPKAQDLERSGLNIEDLEKLQMARPNILGLRNNIYCMAQLLDNSDTAEPTKAGRGASQPPTPTPASDAFQRKLEGCRFLHGYHRFMHSVGRVFSKW | soluble |
| MAHHHHHHMALRGVPIRLGVHRVGYTHPSTLPVPCAQRWDLRLARARIFQEYIEEKAPGAWQLEDERSMSPEFKTFTGYPMREMRPGYGQNLPDFIMKKRLPNNTHYELFARRDIPNEENAMYGKYLYDMTVHGTSLPSTYRMHKDINKAQRNDRKLSGNRFRVLCSSGAKKPPSGWEPIPDATEEEE | not soluble |
| MSQHAFSPDENVHLSPKGWYRQASEKPGFIHDAAQAAAIEQLDRLWHELVDFKSKRNRFLGRSLRSPQVPRGLYFWGGVGRGKSFLMDAFYACVPYRRKRRIHFHHFMAETHRELRKFAGGKDPLLAYADQIAKATRLLCFDEFHVSDIADAMILGRLLSALLERGVVVVTTSNYAPDDLYPGGLQRQNFLPTIELIKRELDVLNVDGGHDYRLRELTREPLFMVPADAANEGKMEQLFRRVSTGAELAQKSITVLEREIAVKRMSPGVIWFDFMALCDGPRAQTDYLEIASEYHTVFLSGIPRLSAKQASIARRFTWLVDVFYDNRVKLIASADAPPEAIYTEGLQSGEFFRTASRLTEMQSKSYLELPHQSMTQSHDQPPPGVALLEHHHHHH | not soluble |
| GPGSMVLVLVVGDTWVPQRASGVPEVFCKMFSPGRIHKLLITGGVGSKEMYDYLRTIAPEVHCVTSSVDRQWADHMPESVVLTVEGLKLGLIHGHQVPVGDKDSLAAVQRELDVDVLVSGSTHQSKYFEFDSHLFVNPGSLSGADTEYDVNVVPSFMLLDIQDKSVVTFIYQFHPEDETGGGGTATEDLAAAGMVPGLRIKKKEWAKE | not soluble |
| MQGTRVMHIFVLSKRKITMNVDNVKSQMRKGMLEYCIMLLLHKEPAYASDIIQKLKEAQLIVVEGTLYPLLTRLKNDDLLSYEWVESTQGPPRKYYKLTEKGEAFLGELEISWKELNETVNHIASR | not soluble |
| MGSDKIHHHHHHMSRNTEATEEVGIWTGGRLNYKEGFFTQLPTDELAKGISEEVVRAISAKRNEPEWMLEFRLNAYRAWLDMDEPHWLKAHYDKLNYQDYSYYSAPSCGNCDDSCVSQPGAVQQTGANTFLSKEVEDAFEQLGVPVREGKEVAVDAIFDSVSVATTYREKLAEQGIIFCSFGEAIHDHPDLVRKYLGTVVPGNDNFFAALNAAVASDGTFIYVPKGVRCPMELSTYFRINAEKTGQFERTILVADEGSYVSYIEGCSAPVRDSYQLHAAVVEVIIHKDAEVKYSTVQNWFPGDNNTGGILNFVTKRALCEGENSKMSWTQSETGSAITWKYPSCILRGDNSIGEFYSVALTSGHQQADTGTKMIHIGKNTRSTIISKGISAGHSQNSYRGLVKIMPTATNARNFTQCDSMLIGADCGAHTFPYVECRNNSAQLEHEATTSRIGEDQLFYCLQRGISEEDAISMIVNGFCKDVFSELPLEFAVEAQKLLAISLEHSVG | not soluble |
| MDKTQSYDIFLIAPPGLEQVLAEEATACGFDEPRVVPGGVETRGPWSEVMRANLVLRGAGRVLVRIGGFPAVHLAQLDKRARKFAWGDFLRPDRPIRVEAVSRKSKIYHAGAAKQRVERAITEELGAPISDEAEIRLMLRIERDFCTFSIDTSGEALHKRGHKEAVGKAPMRETMAALFLRQCGFDGAEPVLDPMCGSGSFVIEAAEWAAGLMPGRSRSFAFEQLAGFDAAQWQSMRNAAGAGGRPESLYSGSDRNAGAIDASRANATRAGVADFCAFHQRPVSDIRPPEGRPGLVIVNPPYGARIGDQARLRSLYGSLGKVLMDRFSGWRVGLITSEMSLARSTRLPFQAPGPVVDHGGIKVRLYQSVRLR | not soluble |
| MGSDKIHHHHHHMNLKTTLFNTTYKFKDIKDVLAKANEKKSGDEMAGIAASGARERVAAKTVLADITLEELRNNPVVSYEKDEITRVIQDSVDEEQYKKIKALTVGEFREFLLENDEDKIKEIRDGLTSEMIAAVTKLMSNMDLVYAAQKICNTAKCNTTIGRRGTFSSRLQPNHPTDNPQGIMASLIDGISYGVGDAVIGLNPVADTIESVSDVLKVFNDFTRKWRIPTQNCVLAHITTQMEALKNGVPIDLMFQSIAGSEIANKDFGISVALLDEAYELMKTKKSSKGPNFMYFETGQGTELSSEGNNRADQLVMEARCYGLAKRYKPFLVNTVVGFIGPEYLYDGKQVIRAGLEDHFMGKLTGLSMGVDTCYTNHMKADQNDLENLAMLLLAANCNYLMGIPCGDDVMLMYQSSSYHDIATLREISDKRPIKEFEKRMEELGIMKNGKLTRNAGDPSIFM | not soluble |

Source: the DeepSol protein solubility set
